Test results reported in US20080098490A1.
Each block holds one substance with its values, some of them ahead of it.

Experiments:
[1] = target: IL-8 receptors on human neutrophils; test: 125I-IL-8 binding to human neutrophils, no antibody
[2] = target: TNF-α receptors on U937 cells; test: 125I-TNF-α binding to U937 cells, no antibody
[3] = target: EGFR expressed on A431 cells or SW948 cells (human) (UniProt P00533); test: inhibition of [125I]EGF binding to A431 cells (receptor binding assay, % specific bound); blocked ligand: EGF

- background binding in the absence of antibody [1]: 2660 cpm
Substance: human IL-8 (from UniProt P10145 28-99) (ligand)

- background binding in the absence of antibody [2]: 4010 cpm
Substance: human tumor necrosis factor-α (from UniProt P01375 77-233) (ligand)

- IC50 (read off the curve) [3]: 20 nM
Substance: mouse anti-human EGFR antibody 225 (Calbiochem)
